Experimental data reported in the supplement of paper PMC10126150.
± gives the standard deviation of the averaged measurements.

Tested on: ATP
Test: switch fluorescence ratio, 500 uM ATP over buffer (Cy3 cluster intensity, sum of 5 cycles each) (fold (ratio)); higher = stronger signal-on switching upon ATP binding; sequences stand for … in TCGTCGGCAGCGTCAGATGTGTATAAGAGACAGTTTTTTTTTTTTTTTTTTTTTTTTT…TC
Conditions: aptamer strand: ATP DNA aptamer (quencher-CACCTGGGGGAGTATTGCGGAGGAAGG + anchor), 100 nM annealed; ATP concentration: 500 uM
Outline: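 Five buffer/ATP imaging cycles were run on Cy3-labelled switching-strand clusters on a modified Illumina MiSeq flow-cell, with NaOH stripping and re-annealing between cycles. In each cycle, clusters annealed to 100 nM quencher-labelled ATP aptamer were imaged in selection buffer, then after 15 min with 500 uM ATP at 22 °C. Per cluster, the fluorescence ratio is summed target-cycle over summed buffer-cycle Cy3 intensity, averaged per switch-domain sequence. Only clusters within 100-1000 RFU were kept.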
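Also: ATP exposure 15 min at 22 °C before imaging.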

| Sequence | switch fluorescence ratio |
| --- | --- |
| CCATTCATAG | 0.973 ± 0.022 |
| CATGGGGGTG | 1 ± 0.021 |
| AACCTACGGC | 1.38 ± 0.083 |
| TAATGGGATG | 0.974 ± 0.015 |
| GGGGGCCAGC | 1.01 ± 0.02 |
| GTTAGTTTGG | 1 ± 0.015 |
| GTTTACTTAG | 1.024 ± 0.005 |
| AGTTACCA | 1.054 ± 0.0038 |
| ACGTGTGCGG | 0.959 ± 0.031 |
| AGTGTATGGC | 1.01 ± 0.032 |
| GACCGAAAAT | 1.055 ± 0.0015 |
| TTTTGGATTG | 0.986 ± 0.026 |
| GAGTAGGGTT | 0.983 ± 0.018 |
| CGTGTCCAGG | 1.3 ± 0.024 |
| TTTTTCCCCA | 1.05 ± 0.042 |
| TTAACACGTA | 1.2 ± 0.024 |
| GGGTGTTGTA | 1 ± 0.055 |
| TCGGCGTTGA | 0.992 ± 0.02 |
| ATAGGTGCTT | 1.131 ± 0.01 |
| TGGTATGGTA | 0.9969 ± 0.0099 |
| TGGGATGGGA | 1 ± 0.024 |
| GGGGATAACG | 0.981 ± 0.012 |
| GGTAGGGCGG | 1.01 ± 0.068 |
| GTAGGTAGTT | 1.09 ± 0.14 |
| AGCCATATAG | 1.048 ± 0.0066 |

| Sequence | switch fluorescence ratio |
| --- | --- |
| CGGTTGATGG | 0.969 ± 0.074 |
| GAGCTAGTGT | 0.9792 ± 0.0081 |
| AGGCACTACA | 1.017 ± 0.0064 |
| TAAGTGGTGC | 1.05 ± 0.031 |
| TGGTGGCGG | 0.952 ± 0.037 |
| TGCGTGGTGG | 1.03 ± 0.019 |
| ACACATAGAC | 1.17 ± 0.051 |
| GTTATGCGCC | 1.02 ± 0.028 |
| ATAGGGGAAG | 1.01 ± 0.033 |
| TGTTTACACT | 1.01 ± 0.051 |
| CATTTTACTT | 1.02 ± 0.035 |
| TCTAATACAG | 1.03 ± 0.032 |
| GGTGGGTTGC | 0.9858 ± 0.0086 |
| GGAGTGACGG | 0.9979 ± 0.0024 |
| AGCGTGAGGG | 1.02 ± 0.018 |
| GGGGGACTGA | 0.991 ± 0.03 |
| GGCACCTGGG | 1.02 ± 0.016 |
| GAAGTAGGGA | 1 ± 0.064 |
| AACGTTGGTT | 1.01 ± 0.012 |
| AAACGCGACT | 1.31 ± 0.2 |
| TTCATCTGTT | 0.9711 ± 0.0084 |
| TTTAACACCA | 1.029 ± 0.0075 |
| AGTTCGTAGT | 1.03 ± 0.049 |
| ACGTCTACGC | 1.101 ± 0.0031 |
| TGGTTGGGGG | 0.995 ± 0.024 |

| Sequence | switch fluorescence ratio |
| --- | --- |
| GTGAGTCAGC | 1.06 ± 0.075 |
| GGGGGGTGAA | 1.02 ± 0.012 |
| AGGATGGGAG | 0.999 ± 0.023 |
| TTCAGTGGGG | 0.991 ± 0.039 |
| TGCTTTTTTT | 0.966 ± 0.024 |
| ATTACGGCAG | 1.02 ± 0.059 |
| AATAGTGGTG | 1 ± 0.022 |
| CAATGAGCCT | 1.04 ± 0.013 |
| GACTAATTTT | 0.9844 ± 0.0081 |
| CGAAAATGCC | 1.02 ± 0.023 |
| CGACCATAGA | 1.07 ± 0.045 |
| GGGTGCATTG | 1.03 ± 0.021 |
| TTAGAACAAG | 1.01 ± 0.019 |
| TCGCCTGTTT | 1.003 ± 0.0036 |
| GGTACTTGTA | 1 ± 0.016 |
| TTGAGCGGTC | 1.1 ± 0.022 |
| GTTTAGGGGG | 0.994 ± 0.018 |
| GGGATAAATA | 0.9996 ± 0.0023 |
| CAACGGGTTA | 0.998 ± 0.0077 |
| TGGGTGAAAG | 1.02 ± 0.02 |
| ACAGATTCTA | 0.984 ± 0.05 |
| ATTCATAGTA | 0.9772 ± 0.0064 |
| AATGCGGTTC | 0.9709 ± 0.0026 |
| GCACGGGCCC | 0.99 ± 0.028 |
| CAGGTCCGCT | 1.12 ± 0.036 |

| Sequence | switch fluorescence ratio |
| --- | --- |
| AAATGGATTT | 1.01 ± 0.085 |
| ATTTTCGGGT | 0.9766 ± 0.0023 |
| ACGTGGCACA | 1.053 ± 0.0084 |
| TTGTGATCTT | 0.961 ± 0.02 |
| TTTCTTACGC | 1.07 ± 0.066 |
| TCCATTGGTG | 1.2 ± 0.025 |
| AAGTTGGTTA | 0.991 ± 0.026 |
| GGGGTCATGT | 1.03 ± 0.015 |
| GCCGTCGTTG | 1 ± 0.019 |
| TCCCGGGTTT | 1.1 ± 0.14 |
| TTTACAGATA | 1 ± 0.018 |
| GATAGTTAGG | 1.01 ± 0.021 |
| AGTATGACGG | 0.986 ± 0.036 |
| TGTTTCTGGG | 0.999 ± 0.05 |
| CCGGAGGGGA | 1.27 ± 0.18 |
| TTCTTTAGAG | 0.987 ± 0.055 |
| TGTTACATGT | 1.04 ± 0.041 |
| TTAAATTGCT | 0.991 ± 0.025 |
| AGTCATGTGC | 0.979 ± 0.038 |
| TTTGAGCTAT | 1.1 ± 0.029 |
| TCCTGACGTC | 1.043 ± 0.0039 |
| CTTTGGAATA | 1.07 ± 0.041 |
| CGGGGATCGG | 0.984 ± 0.011 |
| GTGGATTGCG | 0.9975 ± 0.0075 |
| AGAGGACTTT | 1.001 ± 0.0029 |

| Sequence | switch fluorescence ratio |
| --- | --- |
| GTAGGGGACA | 1.06 ± 0.012 |
| TAAAAGGGGC | 0.985 ± 0.098 |
| GGGGTGTAGT | 0.9854 ± 0.0053 |
| TCGTTGTCGT | 1.04 ± 0.03 |
| AGCCGGGGTA | 0.995 ± 0.025 |
| AAATGTCAAA | 0.986 ± 0.042 |
| TGGGGTATAT | 0.996 ± 0.015 |
| CGAAAAGAGG | 1.1 ± 0.26 |
| ACTAGGGGGA | 0.986 ± 0.023 |
| TCATGTTGTG | 1.01 ± 0.02 |
| TTGTTACATC | 0.941 ± 0.016 |
| GGGTGTGAGA | 1.04 ± 0.03 |
| CTTACGGGAA | 1.15 ± 0.1 |
| GCTGTAGGCG | 0.988 ± 0.015 |
| CCTGCTAAGT | 1 ± 0.058 |
| GTTGTAGTGT | 1.011 ± 0.0011 |
| TGAGGGGGTA | 0.995 ± 0.033 |
| CAATGGAAGA | 0.989 ± 0.014 |
| GTTGACTCAT | 0.97827 ± 0.00051 |
| TTTTGAGGTA | 1.05 ± 0.023 |
| TGGTGTGGTT | 1.02 ± 0.021 |
| CCGGGTAGTT | 1.02 ± 0.074 |
| GTCTTAGGTC | 1 ± 0.035 |
| CATATTTGGG | 0.981 ± 0.081 |
| AAATTGCTGC | 1.01 ± 0.036 |

| Sequence | switch fluorescence ratio |
| --- | --- |
| CCAGGCGATT | 1.07 ± 0.095 |
| CGTGACCGGA | 0.972 ± 0.014 |
| TGGAGTAGC | 1.07 ± 0.078 |
| GGGCGTGGTG | 1.03 ± 0.011 |
| TTTGTTCAT | 0.998 ± 0.028 |
| ATCTCATAGT | 1 ± 0.025 |
| GGTCTGTTTT | 0.992 ± 0.022 |
| AGTATTTAGT | 1.003 ± 0.0092 |
| TCCACATTCC | 1.57 ± 0.35 |
| GAAACCAGAG | 1.39 ± 0.014 |
| GAAAGGTCTA | 0.987 ± 0.057 |
| GGGTCCTTTT | 1 ± 0.021 |
| GGGTGGTCGG | 0.978 ± 0.032 |
| GGTGATTCTG | 0.965 ± 0.038 |
| TTAGAGGCGC | 1.035 ± 0.0095 |
| GAGTGGGAGC | 0.997 ± 0.066 |
| GATGTACGCA | 0.973 ± 0.075 |
| GCTGGCTCTT | 1.01 ± 0.014 |
| TGAATTGTTT | 0.993 ± 0.043 |
| CTGGAGGGGA | 1.04 ± 0.034 |
| ACCGGGTTTT | 1.03 ± 0.02 |
| TTAGAGGGCA | 0.99086 ± 0.00097 |
| GGAGTCATGA | 0.982 ± 0.04 |
| GCGAACCCAA | 1.18 ± 0.048 |
| TGGATTTACT | 1.01 ± 0.031 |

| Sequence | switch fluorescence ratio |
| --- | --- |
| TGGTTGTCCG | 1.06 ± 0.059 |
| CGGGTAGGGA | 1.01 ± 0.022 |
| GAATCATAGA | 1.004 ± 0.0094 |
| TTATGTCTTC | 0.984 ± 0.026 |
| AGAAGGGGTT | 1.04 ± 0.053 |
| ATCGCAGACA | 1.04 ± 0.015 |
| TTACGGGGTG | 1.02 ± 0.019 |
| TGGGTTCAGC | 1 ± 0.011 |
| ATGTCATATG | 0.994 ± 0.031 |
| ATTGGCAGGC | 1.05 ± 0.057 |
| ATTAAGCATG | 1.004 ± 0.0088 |
| GCAACCCGGA | 1.01 ± 0.012 |
| TTTTAGATAT | 0.98713 ± 0.00039 |
| GGGGGGGGAT | 1.01 ± 0.029 |
| TGAGATTATT | 1.01 ± 0.038 |
| TTGTTTTTCA | 0.999 ± 0.027 |
| TATTGGGTTT | 0.996 ± 0.022 |
| GGGCTATTTT | 0.991 ± 0.031 |
| CCTGATCGAT | 1.01 ± 0.02 |
| TATCCTATTA | 1.003 ± 0.0036 |
| GCTTCTAGGT | 0.9976 ± 0.0043 |
| ATTTGATGGG | 0.977 ± 0.03 |
| CGGTGTACTG | 0.992 ± 0.013 |
| TTTGCAGCAT | 1.13 ± 0.22 |
| AATTAATGAT | 0.981 ± 0.029 |

| Sequence | switch fluorescence ratio |
| --- | --- |
| CAATGGGCGA | 0.993 ± 0.011 |
| TGATGGATAT | 0.9921 ± 0.0021 |
| CGGGGTACTT | 1.06 ± 0.056 |
| ATGAGAAGAC | 1.02 ± 0.021 |
| TGCTTCTATA | 1.01 ± 0.051 |
| AGATATAACT | 1.021 ± 0.0066 |
| AGTGAAGCTG | 0.996 ± 0.027 |
| GCGTGATAAT | 1 ± 0.062 |
| GAACTCTTAG | 1.02 ± 0.019 |
| AGCAGGAAGG | 0.9956 ± 0.0041 |
| AGCCGTTTGA | 1.023 ± 0.0016 |
| ACATTTTTGC | 0.9897 ± 0.0011 |
| CGTTGGAATC | 1.12 ± 0.014 |
| GTTCTTGAAA | 0.977 ± 0.036 |
| TTCGGGAGGA | 0.971 ± 0.038 |
| AAGGGTCTAA | 0.978 ± 0.037 |
| TGGGTAAACG | 1.023 ± 0.0035 |
| AAAGTGATGT | 0.969 ± 0.02 |
| TATAGGCTTC | 1 ± 0.023 |
| TGTTCTAGTA | 1.27 ± 0.45 |
| AAATTGAGGC | 0.96 ± 0.027 |
| CCCGGGGGGA | 1.55 ± 0.7 |
| AGGTCCAGGT | 1.262 ± 0.0015 |
| GAGTAAGATC | 0.999 ± 0.048 |
| AATTTTGCTT | 1.01 ± 0.015 |
